From US10562947B2, “Compositions and methods for preventing or treating diseases, conditions or processes characterized by aberrant fibroblast proliferation and extracellular matrix deposition” (MOERAE MATRIX, INC., priority 2011, dated 2020)

What was measured:
Assay in all cases: Kinase Profiling Assay
Format in all cases: biochemical
Conditions in all cases: 100 μM peptide
Fer(h) = Fer(h) (Homo sapiens, UniProt P16591)
How it was run: (§1)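 Duplicate activity readings per kinase; peptide inhibitors of MK2 profiled against 266 human kinases for selectivity.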

Syk(h) = Syk(h) (Homo sapiens, UniProt P43405)
How it was run: as §1

NEK3(h) = target: T1, NEK3(h) (Homo sapiens, UniProt P51956)
T1 sequence (P51956 1-506): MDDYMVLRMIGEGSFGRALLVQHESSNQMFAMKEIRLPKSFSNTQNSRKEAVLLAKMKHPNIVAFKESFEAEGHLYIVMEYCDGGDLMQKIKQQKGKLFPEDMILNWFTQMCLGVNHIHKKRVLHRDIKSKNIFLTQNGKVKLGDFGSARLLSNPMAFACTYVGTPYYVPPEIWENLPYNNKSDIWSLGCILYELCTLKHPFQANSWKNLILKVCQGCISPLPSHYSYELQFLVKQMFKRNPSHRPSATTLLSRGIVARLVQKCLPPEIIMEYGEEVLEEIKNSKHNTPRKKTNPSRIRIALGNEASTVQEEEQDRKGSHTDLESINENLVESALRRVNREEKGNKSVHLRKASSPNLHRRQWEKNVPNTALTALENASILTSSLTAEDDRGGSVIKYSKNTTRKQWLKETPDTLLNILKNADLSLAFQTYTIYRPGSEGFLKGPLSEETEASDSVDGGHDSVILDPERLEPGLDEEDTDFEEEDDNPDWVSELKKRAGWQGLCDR
How it was run: as §1

EphA3(h) = target: T2, EphA3(h) (Homo sapiens, UniProt P29320)
T2 sequence (P29320 21-983): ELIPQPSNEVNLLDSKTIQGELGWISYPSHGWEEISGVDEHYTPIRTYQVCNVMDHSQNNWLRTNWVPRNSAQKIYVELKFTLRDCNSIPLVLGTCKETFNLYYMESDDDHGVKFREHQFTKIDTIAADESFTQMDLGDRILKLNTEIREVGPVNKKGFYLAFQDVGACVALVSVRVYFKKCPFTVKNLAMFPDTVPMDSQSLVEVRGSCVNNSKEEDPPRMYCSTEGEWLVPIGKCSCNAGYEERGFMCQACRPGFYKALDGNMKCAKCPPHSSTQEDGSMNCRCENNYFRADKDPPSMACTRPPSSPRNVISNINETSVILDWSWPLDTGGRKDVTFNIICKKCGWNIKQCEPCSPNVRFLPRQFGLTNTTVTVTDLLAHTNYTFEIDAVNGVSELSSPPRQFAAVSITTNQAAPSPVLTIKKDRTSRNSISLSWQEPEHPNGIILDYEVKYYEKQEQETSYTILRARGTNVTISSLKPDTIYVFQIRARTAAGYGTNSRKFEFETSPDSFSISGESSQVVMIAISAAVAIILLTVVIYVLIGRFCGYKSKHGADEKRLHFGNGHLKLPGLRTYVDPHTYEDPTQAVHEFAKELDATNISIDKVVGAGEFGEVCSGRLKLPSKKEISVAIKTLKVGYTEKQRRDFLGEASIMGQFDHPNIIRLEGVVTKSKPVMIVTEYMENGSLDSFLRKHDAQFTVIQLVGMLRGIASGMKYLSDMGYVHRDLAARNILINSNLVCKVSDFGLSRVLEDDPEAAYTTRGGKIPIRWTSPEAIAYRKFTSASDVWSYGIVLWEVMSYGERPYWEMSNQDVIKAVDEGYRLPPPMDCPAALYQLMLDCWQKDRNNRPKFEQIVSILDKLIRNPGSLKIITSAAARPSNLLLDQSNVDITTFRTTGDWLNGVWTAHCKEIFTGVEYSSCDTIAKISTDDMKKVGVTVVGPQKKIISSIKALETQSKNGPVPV
How it was run: as §1

BRK(h) = BRK(h) (Homo sapiens, UniProt Q13882)
How it was run: as §1

PKCϵ(h) = target: T3, PKCϵ(h) (Homo sapiens, UniProt Q02156)
T3 sequence (Q02156 1-737): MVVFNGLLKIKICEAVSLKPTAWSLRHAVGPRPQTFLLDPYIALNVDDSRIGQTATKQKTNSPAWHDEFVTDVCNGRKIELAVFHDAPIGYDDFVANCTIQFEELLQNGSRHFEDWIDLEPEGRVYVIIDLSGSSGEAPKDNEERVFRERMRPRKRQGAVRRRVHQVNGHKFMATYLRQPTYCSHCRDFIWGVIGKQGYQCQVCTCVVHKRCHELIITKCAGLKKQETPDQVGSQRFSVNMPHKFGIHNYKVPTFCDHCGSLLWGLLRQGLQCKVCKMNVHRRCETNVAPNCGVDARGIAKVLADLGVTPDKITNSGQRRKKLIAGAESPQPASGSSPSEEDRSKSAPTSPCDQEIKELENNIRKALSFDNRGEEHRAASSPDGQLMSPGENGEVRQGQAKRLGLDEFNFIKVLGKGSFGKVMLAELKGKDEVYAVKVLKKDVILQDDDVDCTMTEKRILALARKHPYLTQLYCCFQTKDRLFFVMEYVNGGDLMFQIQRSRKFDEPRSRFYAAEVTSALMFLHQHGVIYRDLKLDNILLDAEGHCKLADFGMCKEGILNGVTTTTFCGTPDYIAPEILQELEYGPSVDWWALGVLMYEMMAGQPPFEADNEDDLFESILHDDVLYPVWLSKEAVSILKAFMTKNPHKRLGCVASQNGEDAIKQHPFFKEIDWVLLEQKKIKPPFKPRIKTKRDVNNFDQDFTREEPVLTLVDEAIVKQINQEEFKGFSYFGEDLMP
How it was run: as §1

FAK(h) = FAK(h) (Homo sapiens, UniProt Q05397)
How it was run: as §1

Fer(h), sequence (P16591 whole entry): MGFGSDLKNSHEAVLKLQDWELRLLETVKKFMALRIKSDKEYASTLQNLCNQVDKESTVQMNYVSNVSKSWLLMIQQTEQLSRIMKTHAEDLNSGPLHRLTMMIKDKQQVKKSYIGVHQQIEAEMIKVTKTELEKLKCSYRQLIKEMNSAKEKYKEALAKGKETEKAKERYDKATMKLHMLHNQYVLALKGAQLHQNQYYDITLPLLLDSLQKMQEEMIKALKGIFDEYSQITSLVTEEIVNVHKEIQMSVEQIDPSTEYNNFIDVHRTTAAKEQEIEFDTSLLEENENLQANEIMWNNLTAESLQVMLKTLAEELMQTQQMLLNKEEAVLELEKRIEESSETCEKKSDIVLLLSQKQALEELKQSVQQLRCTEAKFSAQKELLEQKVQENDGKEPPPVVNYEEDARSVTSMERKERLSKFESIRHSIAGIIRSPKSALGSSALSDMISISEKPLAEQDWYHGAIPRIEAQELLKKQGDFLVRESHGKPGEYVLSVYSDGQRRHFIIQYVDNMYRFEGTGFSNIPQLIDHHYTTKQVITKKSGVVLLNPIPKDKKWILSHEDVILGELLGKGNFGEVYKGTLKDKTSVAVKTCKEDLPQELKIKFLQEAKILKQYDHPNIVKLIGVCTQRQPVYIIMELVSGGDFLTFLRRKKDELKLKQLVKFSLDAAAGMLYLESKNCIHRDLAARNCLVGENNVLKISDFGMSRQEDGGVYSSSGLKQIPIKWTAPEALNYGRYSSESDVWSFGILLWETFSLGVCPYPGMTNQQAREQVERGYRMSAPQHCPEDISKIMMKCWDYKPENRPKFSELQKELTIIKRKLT
FAK(h), sequence (Q05397 whole entry): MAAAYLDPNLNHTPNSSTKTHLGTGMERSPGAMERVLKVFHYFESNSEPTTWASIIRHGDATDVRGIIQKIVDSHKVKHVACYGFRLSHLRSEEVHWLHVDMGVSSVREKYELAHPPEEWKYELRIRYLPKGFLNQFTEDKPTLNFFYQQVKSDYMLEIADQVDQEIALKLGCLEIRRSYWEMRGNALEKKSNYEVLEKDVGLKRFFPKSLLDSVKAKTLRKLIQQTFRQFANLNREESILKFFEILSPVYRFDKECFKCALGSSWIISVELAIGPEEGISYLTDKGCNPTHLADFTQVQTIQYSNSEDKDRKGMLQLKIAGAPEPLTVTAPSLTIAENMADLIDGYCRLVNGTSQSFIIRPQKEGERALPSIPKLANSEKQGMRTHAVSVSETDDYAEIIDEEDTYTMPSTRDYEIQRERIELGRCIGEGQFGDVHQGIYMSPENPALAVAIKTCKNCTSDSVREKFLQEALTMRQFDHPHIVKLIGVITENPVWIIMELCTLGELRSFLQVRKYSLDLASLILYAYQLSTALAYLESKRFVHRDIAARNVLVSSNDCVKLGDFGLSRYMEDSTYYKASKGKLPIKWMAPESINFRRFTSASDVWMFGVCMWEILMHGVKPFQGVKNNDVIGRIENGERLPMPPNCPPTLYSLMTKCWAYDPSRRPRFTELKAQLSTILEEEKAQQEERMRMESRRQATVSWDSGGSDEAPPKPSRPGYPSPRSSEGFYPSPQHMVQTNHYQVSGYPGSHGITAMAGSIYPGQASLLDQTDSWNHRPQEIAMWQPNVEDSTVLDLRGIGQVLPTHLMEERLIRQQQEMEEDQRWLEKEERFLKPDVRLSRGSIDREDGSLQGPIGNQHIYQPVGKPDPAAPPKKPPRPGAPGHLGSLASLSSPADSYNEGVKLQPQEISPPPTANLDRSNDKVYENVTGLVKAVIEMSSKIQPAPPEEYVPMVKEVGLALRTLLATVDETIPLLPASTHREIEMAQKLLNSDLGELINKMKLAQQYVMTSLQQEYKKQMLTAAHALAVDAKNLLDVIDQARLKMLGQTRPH
BRK(h), sequence (Q13882 whole entry): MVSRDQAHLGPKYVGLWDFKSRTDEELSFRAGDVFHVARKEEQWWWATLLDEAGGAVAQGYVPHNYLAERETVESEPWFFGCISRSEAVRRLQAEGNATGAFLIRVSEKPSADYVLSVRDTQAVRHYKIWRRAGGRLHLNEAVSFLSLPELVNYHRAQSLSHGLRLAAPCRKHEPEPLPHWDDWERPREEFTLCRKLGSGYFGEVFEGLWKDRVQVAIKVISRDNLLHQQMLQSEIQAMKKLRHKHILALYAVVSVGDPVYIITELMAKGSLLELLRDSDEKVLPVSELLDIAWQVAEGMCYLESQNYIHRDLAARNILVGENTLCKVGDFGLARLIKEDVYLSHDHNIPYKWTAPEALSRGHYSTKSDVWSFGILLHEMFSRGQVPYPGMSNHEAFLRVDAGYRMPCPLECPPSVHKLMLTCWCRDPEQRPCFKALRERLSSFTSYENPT

| Sequence | Fer(h) % activity (Fer(h)) [%] | Syk(h) % activity (Syk(h)) [%] | NEK3(h) % activity (NEK3(h)) [%] | EphA3(h) % activity (EphA3(h)) [%] | BRK(h) % activity (BRK(h)) [%] | PKCϵ(h) % activity (PKCϵ(h)) [%] | FAK(h) % activity (FAK(h)) [%] |
| --- | --- | --- | --- | --- | --- | --- | --- |
| FAKLAARLYRKALARQLGVAA [MMI-0300] | 130 | 24 | 92 | 6 | 35 | 79 | – |
| KAFAKLAARLYRKALARQLGVAA [MMI-0400] | 108 | 9 | 85 | 12 | 18 | 59 | 96 |
| HRRIKAWLKKIKALARQLGVAA (Mammalian) [MMI-0500] | 196 | 5 | 20 | 33 | 41 | 23 | 94 |
| YARAAARQARAKALNRQLGVA (Mammalian) [MMI-0200] | 101 | 36 | 100 | – | 127 | 98 | 110 |
